Test [1] addresses C3 convertases (C4b2a and C3bBb). Nature of the test: cell-based or functional assay.
In test [2] the target is classical and lectin pathway C3 convertase C4b2a (human) (UniProt P0C0L4). Nature of the test: cell-based or functional assay.
Sequence of UniProt P0C0L4 (P0C0L4 20-1744 limits assumed, chain 1 of 2): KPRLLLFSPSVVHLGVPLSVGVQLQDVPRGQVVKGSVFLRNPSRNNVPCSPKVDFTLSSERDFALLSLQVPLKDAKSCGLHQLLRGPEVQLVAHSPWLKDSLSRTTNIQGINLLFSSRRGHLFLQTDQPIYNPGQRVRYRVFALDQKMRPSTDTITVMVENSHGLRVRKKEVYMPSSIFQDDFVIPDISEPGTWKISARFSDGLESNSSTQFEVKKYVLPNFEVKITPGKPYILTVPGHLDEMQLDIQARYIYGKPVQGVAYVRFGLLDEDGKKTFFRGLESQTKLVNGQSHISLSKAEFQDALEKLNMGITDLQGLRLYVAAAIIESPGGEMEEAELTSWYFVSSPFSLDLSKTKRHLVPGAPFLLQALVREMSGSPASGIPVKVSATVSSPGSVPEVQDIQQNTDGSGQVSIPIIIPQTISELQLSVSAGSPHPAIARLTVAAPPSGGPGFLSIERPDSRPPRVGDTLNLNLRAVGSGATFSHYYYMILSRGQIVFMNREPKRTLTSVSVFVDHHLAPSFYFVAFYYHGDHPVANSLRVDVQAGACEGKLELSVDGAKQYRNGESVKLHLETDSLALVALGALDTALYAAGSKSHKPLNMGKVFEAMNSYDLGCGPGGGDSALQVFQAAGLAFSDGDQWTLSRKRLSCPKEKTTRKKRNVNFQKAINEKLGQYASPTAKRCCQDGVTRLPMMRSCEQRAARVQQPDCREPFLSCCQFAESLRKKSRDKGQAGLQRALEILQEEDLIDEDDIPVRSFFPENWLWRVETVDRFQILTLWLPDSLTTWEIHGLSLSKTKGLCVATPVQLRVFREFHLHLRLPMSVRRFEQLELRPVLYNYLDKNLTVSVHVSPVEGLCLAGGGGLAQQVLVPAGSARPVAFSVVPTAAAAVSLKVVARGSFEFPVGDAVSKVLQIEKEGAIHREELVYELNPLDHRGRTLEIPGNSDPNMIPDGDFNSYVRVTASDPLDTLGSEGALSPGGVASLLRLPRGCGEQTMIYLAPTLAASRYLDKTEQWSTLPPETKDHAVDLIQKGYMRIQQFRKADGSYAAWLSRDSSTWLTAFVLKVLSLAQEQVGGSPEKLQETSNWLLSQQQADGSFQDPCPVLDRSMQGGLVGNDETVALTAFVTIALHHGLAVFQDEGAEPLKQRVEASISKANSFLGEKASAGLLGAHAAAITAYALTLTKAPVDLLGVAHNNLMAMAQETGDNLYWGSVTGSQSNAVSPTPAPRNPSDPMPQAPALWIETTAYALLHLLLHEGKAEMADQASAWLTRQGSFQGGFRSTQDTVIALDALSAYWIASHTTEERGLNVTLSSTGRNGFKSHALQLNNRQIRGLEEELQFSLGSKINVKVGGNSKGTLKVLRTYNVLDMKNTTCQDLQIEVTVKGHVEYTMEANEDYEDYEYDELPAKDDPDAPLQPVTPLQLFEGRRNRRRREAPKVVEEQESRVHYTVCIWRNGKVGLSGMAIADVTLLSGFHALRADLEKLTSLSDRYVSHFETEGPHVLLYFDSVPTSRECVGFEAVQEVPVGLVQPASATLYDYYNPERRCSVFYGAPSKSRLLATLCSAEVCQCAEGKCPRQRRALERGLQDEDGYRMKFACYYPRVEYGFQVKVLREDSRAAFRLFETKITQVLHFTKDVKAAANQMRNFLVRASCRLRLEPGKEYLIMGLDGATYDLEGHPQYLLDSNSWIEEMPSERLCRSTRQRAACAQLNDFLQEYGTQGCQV
Sequence of UniProt P0C0L4 (P06681 244-752 limits assumed, chain 2 of 2, further chain): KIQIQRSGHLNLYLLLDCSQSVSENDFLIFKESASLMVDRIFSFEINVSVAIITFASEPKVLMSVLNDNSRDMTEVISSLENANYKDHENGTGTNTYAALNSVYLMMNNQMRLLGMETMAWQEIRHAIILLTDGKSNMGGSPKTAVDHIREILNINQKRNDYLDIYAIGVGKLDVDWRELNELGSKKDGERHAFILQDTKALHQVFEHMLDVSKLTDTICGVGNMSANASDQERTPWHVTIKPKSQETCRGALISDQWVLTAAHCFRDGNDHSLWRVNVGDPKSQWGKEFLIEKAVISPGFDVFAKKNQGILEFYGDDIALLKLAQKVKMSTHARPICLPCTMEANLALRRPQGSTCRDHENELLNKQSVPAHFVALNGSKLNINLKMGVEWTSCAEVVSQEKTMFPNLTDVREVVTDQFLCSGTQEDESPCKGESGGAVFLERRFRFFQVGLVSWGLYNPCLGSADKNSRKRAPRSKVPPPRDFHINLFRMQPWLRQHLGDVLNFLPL

recombinant SCIN-B (rSCIN-B) had an IC50 of phagocytosis of S. aureus by human neutrophils in 10% human sera in test [1] of 0.8 µg/mL. As for recombinant SCIN-C (rSCIN-C), the IC50 of phagocytosis of S. aureus by human neutrophils in 10% human sera in test [1] was 0.12 µg/mL.

As to “recombinant Staphylococcal Complement Inhibitor (rSCIN)”, the IC50 of phagocytosis of S. aureus by human neutrophils in 10% human sera in test [1] was 0.3 µg/mL. The substance further registered a C5b-9 and C3b deposition via the CP and LP (ELISA) (% inhibition at 10 µg/ml) in test [2] of 50.

These data come from patent US20090246175A1.
